Test results reported in patent US20050153368A1.

Biological target: Gα15 (mammalian)

Substance: Anopheles gambiae odorant receptor 1 (from UniProt Q8WTE7)
- clamp current on perfusion with 4-methyl phenol, voltage clamp of Xenopus oocytes expressing AgOR1/Gα15: 20 nA
